Tested on: NKTs
Assay: CD62L expression by flow cytometry on day 12 after antigenic stimulation of NKTs treated with Wnt activators
Format: cell-based, human
Conditions: for development of CD62L+ NKTs: day 12
Procedure: PBMC of healthy donors (at least 18 years old) are isolated by gradient centrifugation from buffy coats purchased from Gulf Coast Regional Blood Center. NKTs are purified by anti-iNKT microbeads (Miltenyi Biotec). The negative PBMC fraction is irradiated (40 Gy) and aliquoted. NKTs are stimulated with an aliquot of autologous PBMCs pulsed with 100 ng/niL αGalCer (Kyowa Hakko Kirin). Recombinant IL-2 (200 U/ml, National Cancer Institute Frederick) is added every other day in complete RPMI (HyClone RPMI 1640, 10% heat inactivated fetal bovine serum and 2 mM Glutamax). NKTs are expanded for 10 days and then re-stimulated with autologous PBMC (irradiated with 40 Gy) or Ramos cells as aAPC (irradiated with 100 Gy) when indicated. On day 3 after re-stimulation, 24 well, non-tissue culture plates are coated with retronectin (Takara Bio) and after washing inoculated with 1 ml of retroviral supernatant containing the constructs shown in FIG. 27 and described above and spun for 60 min at 4600 G. The viral supernatant is then removed and stimulated NKTs are added to the wells in complete media and 200 U/ml rhIL-2. Cells are removed from the plate after 48 h, washed, re-suspended at the concentration 10^6 cell/ml in complete RPMI with 200 U/ml IL-2 and plated for continued expansion. NKT-cell number is determined by Trypan Blue (Life technologies) counting. When indicated, NKTs or CAR-NKTs are labeled with CD62L-PE mAb (GREG-56, BD Biosciences) and anti-PE microbeads (Miltenyi) followed by magnetic sorting into CD62L+ and CD62L− subsets according to the manufacturer's instructions. The phenotype of the sorted cells was determined by FACS.
NKTs are stimulated as described in Example 2 but treated with three separate doses of PBS or 500 ng/mL Wnt3a given on day 0, 3 and 7 after antigenic stimulation. CD62L expression is examined by flow cytometry on day 12 after antigenic stimulation. […]
Following primary stimulation, NKTs are cultured with IL-2 or IL-2/IL-21 for 12 days. […] CD62L expression is analyzed by flow cytometry at the end of expansion.

Molecule	development of CD62L+ NKTs (one dose 5 μM on day 7 after antigenic stimulation vs DMSO, n=6 donors)	development of CD62L+ NKTs (500 ng/mL on day 0, 3 and 7 vs PBS, n=3 donors)	CD62L frequency (500 ng/ml on days 0, 1, 2, culture with IL-2 or IL-2/IL-21 for 12 days)
Nc1cccc(-c2cc3c(Oc4cccc(O)c4)ncnc3[nH]2)c1 [TWS119, reference compound]	promotes development of CD62L+ NKTs		
Wnt3a: recombinant Wnt3a, Wnt ligand (protein, UniProt P56704 19-352, looked up) Protein Wnt-3a: SYPIWWSLAVGPQYSSLGSQPILCASIPGLVPKQLRFCRNYVEIMPSVAEGIKIGIQECQHQFRGRRWNCTTVHDSLAIFGPVLDKATRESAFVHAIASAGVAFAVTRSCAEGTAAICGCSSRHQGSPGKGWKWGGCSEDIEFGGMVSREFADARENRPDARSAMNRHNNEAGRQAIASHMHLKCKCHGLSGSCEVKTCWWSQPDFRAIGDFLKDKYDSASEMVVEKHRESRGWVETLRPRYTYFKVPTERDLVYYEASPNFCEPNPETGSFGTRDRTCNVSSHGIDGCDLLCCGRGHNARAERRREKCRCVFHWCCYVSCQECTRVYDVHTCK		promotes development of CD62L+ NKTs	works additively with IL-21 to increase CD62L frequency

Reference: US20240110154A1, “Engineered NKT Cells for Expansion and In Vivo Preservation and Methods of Use for the Control of Tumor Cells” (Baylor College of Medicine, priority 2021, published 2024)
